In US20060058231A1 (Xencor, published 2006):

T1: BMPRIb receptor/Fc fusion (R&D Systems) (UniProt O00238 14-126)
T1 construct: also called ALK-6; not shown: Fc portion of the fusion
T1 sequence (looked up): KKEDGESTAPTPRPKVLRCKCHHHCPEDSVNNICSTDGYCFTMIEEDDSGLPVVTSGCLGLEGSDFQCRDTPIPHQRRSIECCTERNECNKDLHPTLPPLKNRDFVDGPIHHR

T2: BMPRII receptor/Fc fusion (R&D Systems) (UniProt Q13873 27-151, limits assumed)
T2 construct: not shown: Fc portion of the fusion
T2 sequence (looked up): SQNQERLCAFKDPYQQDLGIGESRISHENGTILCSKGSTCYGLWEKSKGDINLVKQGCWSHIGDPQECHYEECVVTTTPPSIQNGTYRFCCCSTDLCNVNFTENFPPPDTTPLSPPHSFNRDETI


Assays:
[1] = target: T1, BMPRIb receptor/Fc fusion (R&D Systems); assay: plate direct binding assay (ELISA-like): BMP-7 captured by anti-BMP-7 antibody, receptor-Fc titrated (x axis Receptor, ug/mL), anti-human IgG-HRP, absorbance 450 nm
[2] = target: T3, ActRIIa receptor/Fc fusion (R&D Systems) (UniProt P27037 20-134, limits assumed); assay: as above
T3 construct: not shown: Fc portion of the fusion

[3] = target: T2, BMPRII receptor/Fc fusion (R&D Systems); assay: as above
[4] = target: T4, BMPRIa receptor/Fc fusion (R&D Systems) (UniProt P36894 24-152); assay: as above
T4 construct: also called ALK-3; not shown: Fc portion of the fusion

[5] = target: T3, ActRIIa receptor/Fc fusion (R&D Systems); assay: fluorescence anisotropy, labeled BMP-7 added to serial dilutions of receptor/Fc fusion (x axis [receptor] uM)
Experimental: (§1) The binding of selected variants to BMP receptors, antibodies, and inhibitors was characterized using a fluorescence binding assay and the AlphaScreen™ assay. […] Small-scale (25 uL) reactions were performed using 15 uM BMP-7 and dye concentrations ranging from 0.3 uM to 1000 uM. […] The reaction was quenched with Tris pH 8.0 and cleaned up using a PD-10 desalt column; the second fraction was used in the experiments described below. BMP-7 was also labeled with C6-FXS, a FITC-derived fluorophore with a 6-carbon spacer between the fluor and the NHS group. Labeling conditions with various ratios of protein to dye were tested, in 20 mM PO4, 500 mM NaCl, pH 7 solution. After establishing labeling conditions, 500 ug Y65N/S120D was labeled. Excess dye was removed by centrifugation and a PD-10 desalt column.
(§2) The flourescently labeled BMP-7 was added to serial dilutions of receptor/Fc fusions of the BMP-7 receptors ActRIa, BMPRIa, BMPRIb, ActRIIa, ActRIIb, and BMPRII (R&D Systems). Experiments were also performed in which the fluorescently labeled BMP-7 was added to serial dilutions of noggin/Fc or gremlin (R&D Systems). The labeled BMP-7 and receptor or inhibitor was allowed to incubate, and the fluorescence polarization and intensity was measured using a TopCount plate reader.

[6] = target: T5, ActRIIb receptor/Fc fusion (R&D Systems) (UniProt Q13705 19-134, limits assumed); assay: as above
T5 construct: not shown: Fc portion of the bought fusion
Experimental: as §1, §2

[7] = target: T4, BMPRIa receptor/Fc fusion (R&D Systems); assay: as above
Experimental: as §1, §2

T4 sequence (P36894 24-152 limits assumed): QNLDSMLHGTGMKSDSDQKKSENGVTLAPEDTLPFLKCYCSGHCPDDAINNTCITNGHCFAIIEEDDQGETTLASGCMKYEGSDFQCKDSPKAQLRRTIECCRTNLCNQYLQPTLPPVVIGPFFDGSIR
T3 sequence (P27037 20-134 limits assumed): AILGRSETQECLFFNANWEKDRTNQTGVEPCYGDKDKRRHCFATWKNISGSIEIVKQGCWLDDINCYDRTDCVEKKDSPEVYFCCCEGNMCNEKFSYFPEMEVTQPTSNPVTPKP
T5 sequence (Q13705 19-134 limits assumed): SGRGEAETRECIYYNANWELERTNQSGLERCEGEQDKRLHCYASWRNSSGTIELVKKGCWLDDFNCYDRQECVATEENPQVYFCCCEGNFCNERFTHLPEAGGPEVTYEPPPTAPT

Binder | EC50 (read off the curve) [1] [µg/mL] | EC50 (read off the curve) [2] [µg/mL] | EC50 (read off the curve) [3] [µg/mL] | EC50 (read off the curve) [4] [µg/mL] | EC50 (read off the curve) [5] [nM] | EC50 (read off the curve) [6] [nM] | EC50 (read off the curve) [7] [nM]
wild type human BMP-7 (Image clone) (ligand, The pro-protein is processed to a dimeric mature BMP-7; also called WT; wild-type BMP-7) STGGKQRSQNRSKTPKNQEALRMASVAENSSSDQRQACKKHELYVSFRDLGWQDWIIAPEGYAAYYCEGECAFPLNSYMNATNHAIVQTLVHFINPETVPKPCCAPTQLNAISVLYFDDSSNVILKKYRNMVVRACGCH | ~0.7 | ~0.2 | ~1 | ~1 | – | – | –
FXS labeled BMP7 (ligand, labeled with C6-FXS (FITC-derived NHS fluorophore); labeled sites not given, the C6-FXS form of the labeled BMP-7 that the list holds jointly as 1.m9; also called BMP-7 variant Y65N/S120D labeled with C6-FXS) BMP-7 mature domain: STGGKQRSQNRSKTPKNQEALRMASVAENSSSDQRQACKKHELYVSFRDLGWQDWIIAPEGYAANYCEGECAFPLNSYMNATNHAIVQTLVHFINPETVPKPCCAPTQLNAISVLYFDDDSNVILKKYRNMVVRACGCH | – | – | – | – | ~3000 | ~2000 | ~1000
